# Laboratory results from patent publication US20040121942A1 (University of California, published 2004).
# T1: endogenous wild-type PLB of rat cardiac myocytes (rat, UniProt P61016 1-52)
# T1 sequence (looked up): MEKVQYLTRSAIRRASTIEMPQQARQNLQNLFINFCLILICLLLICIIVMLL
# T2: sense PLB (wild-type phospholamban) expressed from a recombinant adenovirus (human, UniProt P26678 1-52)
# T2 construct: ID; PLB exists as pentamer and monomer; also called sPLB; wild-type PLB
# T2 sequence: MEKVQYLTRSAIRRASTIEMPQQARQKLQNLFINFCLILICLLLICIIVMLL
# Assays:
# [1] = target: T1, endogenous wild-type PLB of rat cardiac …; assay: cell-based or functional assay
# [2] = target: T2, sense PLB (wild-type phospholamban) …; assay: Western blot of Sol8 cells co-infected with sPLB and K3E/R14E; bands read as heteropentamer
binder,measurement,setting,value
"K3E/R14E double point mutation of PLB expressed from a recombinant adenovirus (other, ID) MEEVQYLTRSAIREASTIEMPQQARQKLQNLFINFCLILICLLLICIIVMLL","lowering of the EC50 of Ca2+ for SR Ca2+ uptake, adult rat myocytes",[1],36%
same,binding result,[2],binds
